Source: US20230137139A1, “BIOSYNTHESIS OF CANNABINOIDS AND C[…]” (priority 2020, published 2023)

Experiments:
[1] = system: CBCVA, THCVA, and CBDVA production; assay: In vivo TS activity assay, Example 2 protein engineering of A. niger CBCAS, cultures fed divaric acid; assay type: cell-based, S. cerevisiae; conditions: fed divaric acid; for Mean CBCVA / Mean CBDVA / Mean THCVA: S. cerevisiae strains expressing A. niger CBCAS mutants, secondary screen; for % CBCVA / % CBDVA / % THCVA: share of terminal cannabinoid product profile
Outline: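 Quantification by LC-MS of methanol-extracted production cultures, strains in quadruplicate. Yeast carrying mutant A. niger CBCAS (MFalpha2 N-terminal and HDEL C-terminal signal peptides) were induced 4 days at 20 °C in YEP+4% galactose fed 1 mM divaric acid, re-dosed every 24 h with 2% galactose and 1 mM divaric acid, after 2 days of dextrose preculture at 30 °C; 100 mM citrate pH 5.5 was then added for 2 more days.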

[2] = system: CBCA, THCA, and CBDA production; assay: In vivo TS activity assay, Example 2 protein engineering of A. niger CBCAS, cultures fed olivetolic acid; assay type: cell-based, S. cerevisiae; conditions: for Mean CBCA / Mean CBDA / Mean THCA: secondary screen, olivetolic acid (Table 8); for % CBCA / % CBDA / % THCA: share of terminal cannabinoid product profile
Outline: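 CBCA, THCA and CBDA were measured by LC-MS in methanol extracts of yeast cultures expressing mutant A. niger CBCAS. Cultures were induced at 20 °C with galactose and fed 1 mM olivetolic acid daily for 4 days, then buffered with 100 mM sodium citrate pH 5.5. Secondary screen: quadruplicates fed 1 mM olivetolic or divaric acid.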

Molecule | Mean CBCVA [1] | Mean CBDVA [1] | Mean THCVA [1] | % CBCVA [1] | % CBDVA [1] | % THCVA [1] | Mean CBCA [2] | Mean CBDA [2] | Mean THCA [2] | % CBCA [2] | % CBDA [2] | % THCA [2]
t865742 (protein) MGNTTSIAGRDCLISALGGNSALAVFPNELLWTADVHEYNLNLPVTPAAITYPETAAQIAGVVKCASDYDYKVQARSGGHSFGNYGLGGADGAVVVDMKHFTQFSMDDETYTAVIGPGTTLNDVDIELYNNGKRAMAHGVCPTIKTGGHFTIGGLGPTARQWGLALDHVEEVEVVLANSSIVRASNTQNQDVFFAVKGAAANFGIVTEFKVRTEPAPGLAVQYSYTFNLGSTAEKAQFVKDWQSFISAKNLTRQFYNNMVIFDGDIILEGLFFGSKEQYDALGLEDHFAPKNPGNILVLTDWLGMVGHALEDTILKLVGNTPTWFYAKSLGFRQDTLIPSAGIDEFFEYIANHTAGTPAWFVTLSLEGGAINDVAEDATAYAHRDVLFWVQLFMVNPVGPISDTTYEFTDGLYDVLARAVPESVGHAYLGCPDPRMEDAQQKYWRTNLPRLQELKEELDPKNTFHHPQGVMPA | 2864.87 µg/L | 0.00 µg/L | 1514.38 µg/L | 65.42% | 0.00% | 34.58% | 31427.04 µg/L | 9022.22 µg/L | 2036.13 µg/L | 73.97% | 21.24% | 4.79%
t865724 (protein) MGNTTSIAGRDCLISALGGNSALAVFPNELLWTADVHEYNLNLPVTPAAITYPETAAQIAGVVKCASDYDYKVQARSGGHSFGNYGLGGADGAVVVDMKHFNQFSMDDETYEAVIGPGTTLNDVDIELYNNGKRAMAHGVCPTIKTGGHFTIGGLGPTARQWGLALDHVEEVEVVLANSSIVRASNTQNQDVFFAVKGAAANFGIVTEFKVRTEPAPGLAVQYSYTFNLGSTAEKAQFVKDWQSFISAKNLTRQFYNNMVIFDGDIILEGLFFGSKEQYDALGLEDHFAPKNPGNILVLTDWLGMVGHALEDTILKLVGNTPTWFYAKSLGFRQDTLIPSAGIDEFFEYIANHTAGTPAWFVTLSLEGGAINDVAEDATAYAHRDVLFWVQLFMVNPVGPISDTTYEFTDGLYDVLARAVPESVGHAYLGCPDPRMEDAQQKYWRTNLPRLQELKEELDPKNTFHHPQGVMPA | 2190.11 µg/L | 0.00 µg/L | 1153.25 µg/L | 65.51% | 0.00% | 34.49% | 30758.44 µg/L | 7663.56 µg/L | 2146.00 µg/L | 75.82% | 18.89% | 5.29%
t865730 (protein) MGNTTSIAGRDCLISALGGNSALAVFPNELLWTADVHEYNLNLPVTPAAITYPETAAQIAGVVKCASDYDYKVQARSGGHSFGNYGLGGADGAVVVDMKHFTQFSMDDETYEAVIGPGTTLNDVDIELYNNGKRAMAHGVCPTIKTGGHFTIGGLGPTARQWGLALDHVEEVEVVLANSSIVRASNTQNQDVFFAVKGAAAGFGIVTEFKVRTEPAPGLAVQYSYTFNLGSTAEKAQFVKDWQSFISAKNLTRQFYNNMVIFDGDIILEGLFFGSKEQYDALGLEDHFAPKNPGNILVLTDWLGMVGHALEDTILKLVGNTPTWFYAKSLGFRQDTLIPSAGIDEFFEYIANHTAGTPAWFVTLSLEGGAINDVAEDATAYAHRDVLFWVQLFMVNPVGPISDTTYEFTDGLYDVLARAVPESVGHAYLGCPDPRMEDAQQKYWRTNLPRLQELKEELDPKNTFHHPQGVMPA | 3406.05 µg/L | 0.00 µg/L | 1922.88 µg/L | 63.92% | 0.00% | 36.08% | 27874.45 µg/L | 8385.38 µg/L | 1771.94 µg/L | 73.29% | 22.05% | 4.66%
